Data reported in publication PMC10397247.

What was measured:
Assay in all cases: two-hybrid library CCmax;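 note: natural log of median RNA to DNA barcode read ratio; higher means stronger binding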
4H1867-AA = target: T1, 4H1867-AA; details: mean of both orientations
T1 chain: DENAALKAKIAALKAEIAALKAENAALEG

4H2354-AA = target: T2, 4H2354-AA; details: mean of both orientations
T2 chain: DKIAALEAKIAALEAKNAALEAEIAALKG

4H2754-AA = target: T3, 4H2754-AA; details: mean of both orientations
T3 chain: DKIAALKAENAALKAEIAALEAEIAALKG

4H454-AA = target: T4, 4H454-AA; details: mean of both orientations
T4 chain: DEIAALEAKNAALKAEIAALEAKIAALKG

4H2505-AA = target: T5, 4H2505-AA; details: mean of both orientations
T5 chain: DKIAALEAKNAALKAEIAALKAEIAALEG

4H605-AA = target: T6, 4H605-AA; details: mean of both orientations
T6 chain: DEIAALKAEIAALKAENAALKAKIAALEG

Q3-AA = target: T7, Q3-AA; details: mean of both orientations
T7 chain: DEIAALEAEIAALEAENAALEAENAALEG

4H2837-AA = target: T8, 4H2837-AA; details: mean of both orientations
T8 chain: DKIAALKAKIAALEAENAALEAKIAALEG

4H881-AA = target: T9, 4H881-AA; details: mean of both orientations
T9 chain: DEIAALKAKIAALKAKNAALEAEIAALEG

4H566-AA = target: T10, 4H566-AA; details: mean of both orientations
T10 chain: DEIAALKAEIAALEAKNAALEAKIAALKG

4H678-AA = target: T11, 4H678-AA
T11 chain: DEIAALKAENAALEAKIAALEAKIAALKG

4H794-AA = target: T12, 4H794-AA; details: mean of both orientations
T12 chain: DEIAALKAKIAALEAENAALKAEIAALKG

4H3343-AA = target: T13, 4H3343-AA; details: mean of both orientations
T13 chain: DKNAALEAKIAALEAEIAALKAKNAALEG

4H1552-AA = target: T14, 4H1552-AA; details: mean of both orientations
T14 chain: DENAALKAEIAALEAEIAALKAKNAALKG

4H2949-AA = target: T15, 4H2949-AA; details: mean of both orientations
T15 chain: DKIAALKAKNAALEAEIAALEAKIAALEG

4H906-AA = target: T16, 4H906-AA; details: mean of both orientations
T16 chain: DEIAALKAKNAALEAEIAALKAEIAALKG

4H2165-AA = target: T17, 4H2165-AA; details: mean of both orientations
T17 chain: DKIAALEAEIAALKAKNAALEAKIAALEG

4H2575-AA = target: T18, 4H2575-AA; details: mean of both orientations
T18 chain: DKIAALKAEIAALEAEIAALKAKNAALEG

4H1401-AA = target: T19, 4H1401-AA; details: mean of both orientations
T19 chain: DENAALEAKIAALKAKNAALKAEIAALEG

4H993-AA = target: T20, 4H993-AA; details: mean of both orientations
T20 chain: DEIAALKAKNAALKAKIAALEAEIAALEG

4H234-AA = target: T21, 4H234-AA; details: mean of both orientations
T21 chain: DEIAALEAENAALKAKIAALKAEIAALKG

Q7-AA = target: T22, Q7-AA; details: mean of both orientations
T22 chain: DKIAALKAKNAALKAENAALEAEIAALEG

4H3718-AA = target: T23, 4H3718-AA; details: mean of both orientations
T23 chain: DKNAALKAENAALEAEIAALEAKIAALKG

4H2277-AA = target: T24, 4H2277-AA; details: mean of both orientations
T24 chain: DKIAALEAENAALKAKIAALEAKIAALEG

4H1636-AA = target: T25, 4H1636-AA; details: mean of both orientations
T25 chain: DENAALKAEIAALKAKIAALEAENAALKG

4H3627-AA = target: T26, 4H3627-AA; details: mean of both orientations
T26 chain: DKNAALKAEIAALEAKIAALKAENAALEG

4H342-AA = target: T27, 4H342-AA; details: mean of both orientations
T27 chain: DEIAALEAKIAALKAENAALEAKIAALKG

4H2617-AA = target: T28, 4H2617-AA; details: mean of both orientations
T28 chain: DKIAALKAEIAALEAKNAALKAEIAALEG

Q8-AA = target: T29, Q8-AA; details: mean of both orientations
T29 chain: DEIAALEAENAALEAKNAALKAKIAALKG

4H2883-AA = target: T30, 4H2883-AA; details: mean of both orientations
T30 chain: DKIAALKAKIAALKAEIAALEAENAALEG

4H1513-AA = target: T31, 4H1513-AA; details: mean of both orientations
T31 chain: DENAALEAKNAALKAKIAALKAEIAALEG

4H317-AA = target: T32, 4H317-AA; details: mean of both orientations
T32 chain: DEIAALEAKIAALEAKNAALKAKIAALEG

4H335-AA = target: T33, 4H335-AA; details: mean of both orientations
T33 chain: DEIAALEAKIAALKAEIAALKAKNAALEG

4H2151-AA = target: T34, 4H2151-AA; details: mean of both orientations
T34 chain: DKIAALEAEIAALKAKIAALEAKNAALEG

4H780-AA = target: T35, 4H780-AA; details: mean of both orientations
T35 chain: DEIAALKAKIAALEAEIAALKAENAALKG

4H717-AA = target: T36, 4H717-AA; details: mean of both orientations
T36 chain: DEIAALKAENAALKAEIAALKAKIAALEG

4H3427-AA = target: T37, 4H3427-AA; details: mean of both orientations
T37 chain: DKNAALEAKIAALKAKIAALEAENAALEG

4H2078-AA = target: T38, 4H2078-AA; details: mean of both orientations
T38 chain: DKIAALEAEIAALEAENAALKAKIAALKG

4H1352-AA = target: T39, 4H1352-AA
T39 chain: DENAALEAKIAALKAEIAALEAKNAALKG

4H2944-AA = target: T40, 4H2944-AA; details: mean of both orientations
T40 chain: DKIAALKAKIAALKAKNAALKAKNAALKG

4H3112-AA = target: T41, 4H3112-AA; details: mean of both orientations
T41 chain: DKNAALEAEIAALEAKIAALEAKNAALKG

4H2190-AA = target: T42, 4H2190-AA; details: mean of both orientations
T42 chain: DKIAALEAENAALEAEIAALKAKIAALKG

4H48-AA = target: T43, 4H48-AA; details: mean of both orientations
T43 chain: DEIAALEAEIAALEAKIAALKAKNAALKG

4H429-AA = target: T44, 4H429-AA; details: mean of both orientations
T44 chain: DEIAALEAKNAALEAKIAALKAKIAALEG

4H3844-AA = target: T45, 4H3844-AA
T45 chain: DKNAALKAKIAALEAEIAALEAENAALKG

4H2466-AA = target: T46, 4H2466-AA; details: mean of both orientations
T46 chain: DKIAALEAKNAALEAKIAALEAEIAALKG

4H3655-AA = target: T47, 4H3655-AA; details: mean of both orientations
T47 chain: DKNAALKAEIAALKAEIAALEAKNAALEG

4H3606-AA = target: T48, 4H3606-AA; details: mean of both orientations
T48 chain: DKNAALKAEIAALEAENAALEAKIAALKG

4H2729-AA = target: T49, 4H2729-AA; details: mean of both orientations
T49 chain: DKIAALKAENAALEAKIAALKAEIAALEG

4H2642-AA = target: T50, 4H2642-AA; details: mean of both orientations
T50 chain: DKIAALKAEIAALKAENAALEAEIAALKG

4H3921-AA = target: T51, 4H3921-AA; details: mean of both orientations
T51 chain: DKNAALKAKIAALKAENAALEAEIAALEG

4H2393-AA = target: T52, 4H2393-AA; details: mean of both orientations
T52 chain: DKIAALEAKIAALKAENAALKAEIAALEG

DENAALEAKIAALKAEIAALEAKNAALKG [4H1352-AA]
interaction score (4H1867-AA): 0.645
interaction score (4H2354-AA): -1.74
interaction score (4H2754-AA): -0.982
interaction score (4H454-AA): 1.39
interaction score (4H2505-AA): -0.788
interaction score (4H605-AA): -1.5
interaction score (Q3-AA): -0.583
interaction score (4H2837-AA): -0.514
interaction score (4H881-AA): -0.885
interaction score (4H566-AA): -1.51
interaction score (4H678-AA): -0.653
interaction score (4H794-AA): -1.64
interaction score (4H3343-AA): -0.188
interaction score (4H1552-AA): 1.47
interaction score (4H2949-AA): -0.999
interaction score (4H906-AA): -1.39
interaction score (4H2165-AA): -1.51
interaction score (4H2575-AA): 1.45
interaction score (4H1401-AA): -1.64
interaction score (4H993-AA): -0.427
interaction score (4H234-AA): -1.3
interaction score (Q7-AA): -1.38
interaction score (4H3718-AA): 0.714
interaction score (4H2277-AA): -1.27
interaction score (4H1636-AA): -1.13
interaction score (4H3627-AA): 2.33
interaction score (4H342-AA): 1.49
interaction score (4H2617-AA): 0.197
interaction score (Q8-AA): -1.22
interaction score (4H2883-AA): 0.183
interaction score (4H1513-AA): -0.469
interaction score (4H317-AA): -0.919
interaction score (4H335-AA): 0.334
interaction score (4H2151-AA): -0.65
interaction score (4H780-AA): -1.6
interaction score (4H717-AA): -1.46
interaction score (4H3427-AA): 0.842
interaction score (4H2078-AA): -1.18
interaction score (4H1352-AA): 1.38
interaction score (4H2944-AA): -0.752
interaction score (4H3112-AA): 1.11
interaction score (4H2190-AA): -1.16
interaction score (4H48-AA): -0.096
interaction score (4H429-AA): -0.813
interaction score (4H3844-AA): 1.93
interaction score (4H2466-AA): -1.34
interaction score (4H3655-AA): 0.863
interaction score (4H3606-AA): -0.743
interaction score (4H2729-AA): 0.0997
interaction score (4H2642-AA): -1.13
interaction score (4H3921-AA): -1.28
interaction score (4H2393-AA): -1.01
